Results on two substances are retold here after article doi:10.1101/2021.01.26.428356.

For the assay, the target named is Fc-tagged receptor-binding domain (RBD) of the SARS-CoV-2 spike (S) protein (SARS-CoV-2) (UniProt P0DTC2). The assay is described as follows: BLI; Octet Red96e; Fc-tagged RBD loaded onto the biosensor (streptavidin biosensors as printed), Fab in solution; 1x PBS pH 7.4, 0.01% w/v BSA, 0.002% v/v Tween 20; 60 s association, 60 s dissociation; 1:1 binding model. (In general: BLI is a label-free optical method that tracks binding on a fibre tip over time.)

Usually Kd stands for a measure of binding affinity in units of concentration.

As for “COVD21-C8 heavy chain paired with the light chain of COV107-23 (Fab)”, the Kd was > 1 µM.
The same measure for “COV107-23 heavy chain paired with the light chain of COVD21-C8 (Fab)”: > 1 µM.
